The values that follow come from article PMC9684487, “Human antibody recognition and neutralization mode on the NTD and RBD domains of SARS-CoV-2 spike protein” (Scientific Reports, 2022).

The assay concerns the target T1, S protein trimer with D614G mutation (SARS-CoV-2, D614G, D614G).
T1 construct: also called Spike; homotrimeric S protein
As to the kind of experiment: cryo-EM structure. Particulars: both partners purified.

B1: NIBIC-71 (antibody, V domains shown)
VH: EVQLVESGGGLIQPGGSLRLSCEASGLIVSSNYMTWVRQAPGKGLEWVSVIYSGGSTFYADSVKGRFTVSRDNSKNTLYLQMNNLSPEDTAVYYCARDLGPYGVDVWGQGTTVTVSS
VL: AIQLTQSPSSLSASVGDRVTITCRASQGISSYLAWYQQTPGKAPKLLIYAASTLQSGVPSRFSGSGSGTDFTLTISSLQPEDFATYYCQQLNSYPPFTFGPGTKVDIK
notes: also called recombinant mAb NIBIC-71
Consider B1, for which the “stoichiometry N” value stood at 2 Fabs per S protein trimer.

B2: 7G7/κ (antibody, V domains shown)
VH: QVQLVESGGGVVQPGRSLRLSCIASGFTFRNYAMYWVRQAPGKGLEWVAVIWYDGSNKFYTDSVKGRFTISRDNSKNSLYLQMNSLRAEDTAVYFCARDQGFGDNYYYYGMDVWGQGTTVTVSS
VL: SYELTQPPSVSVSPGQTARISCSGDALPKEYAYWYQQKPGQAPVLVIYKDSERPSGIPERFSGSSSGTTVTLTISGVQAEDEADYYCQLADSSMHYVVFGGGTKLTVL
notes: also called 7G7-IgG1κ; 7G7/κ (IgG1/Igκ); source: Expi293F, cotransfected with IgH and IgL vectors, purified (HiTrap Protein G)
Regarding B2, the “stoichiometry N” value worked out at 3 Fabs per S protein trimer.

As a reminder, the stoichiometry N is a count of units in the complex or per binding partner.
